Test results reported in patent publication US20200079855A1 (Pfizer, published 2020).

How the values were obtained:
[1] = biological target: T1, human αvβ8 integrin on U251 cells (human, UniProt P06756 31-1048); assay: flow cytometry, Fab binding to fixed U251 cells (ΔMFI, background subtracted); EC50 unit inferred, axis Log10 [FAB] nM
[2] = biological target: T1, human αvβ8 integrin on U251 cells; assay: cell-based or functional assay
[3] = biological target: T1, human αvβ8 integrin on U251 cells; assay: flow cytometry, Fab binding to fixed U251 cells (ΔMFI, background subtracted); EC50 unit inferred, axis Log10 [Ab] (nM)
[4] = biological target: T1, human αvβ8 integrin on U251 cells; assay: flow cytometry, Fab binding to fixed U251 cells (MFI APC-A); EC50 unit inferred, axis Log10 [Ab] (nM)
[5] = biological target: T2, mouse αvβ8 integrin on C8-S cells (mouse, UniProt P43406 31-1044; Q0VBD0 22-767); assay: flow cytometry, IgG binding to C8-S cells (MFI PE-A), right panel ADWA11_IgG_C8-S cell binding; EC50 unit inferred, axis Log10 [mAb] nM
T2 construct: Endogenous αvβ8 of C8-S mouse astrocyte cells; also called C8-S (mouse astrocyte); C8-S (mouse avb8)
T2 sequence (P43406 31-1044 limits assumed, chain 1 of 2): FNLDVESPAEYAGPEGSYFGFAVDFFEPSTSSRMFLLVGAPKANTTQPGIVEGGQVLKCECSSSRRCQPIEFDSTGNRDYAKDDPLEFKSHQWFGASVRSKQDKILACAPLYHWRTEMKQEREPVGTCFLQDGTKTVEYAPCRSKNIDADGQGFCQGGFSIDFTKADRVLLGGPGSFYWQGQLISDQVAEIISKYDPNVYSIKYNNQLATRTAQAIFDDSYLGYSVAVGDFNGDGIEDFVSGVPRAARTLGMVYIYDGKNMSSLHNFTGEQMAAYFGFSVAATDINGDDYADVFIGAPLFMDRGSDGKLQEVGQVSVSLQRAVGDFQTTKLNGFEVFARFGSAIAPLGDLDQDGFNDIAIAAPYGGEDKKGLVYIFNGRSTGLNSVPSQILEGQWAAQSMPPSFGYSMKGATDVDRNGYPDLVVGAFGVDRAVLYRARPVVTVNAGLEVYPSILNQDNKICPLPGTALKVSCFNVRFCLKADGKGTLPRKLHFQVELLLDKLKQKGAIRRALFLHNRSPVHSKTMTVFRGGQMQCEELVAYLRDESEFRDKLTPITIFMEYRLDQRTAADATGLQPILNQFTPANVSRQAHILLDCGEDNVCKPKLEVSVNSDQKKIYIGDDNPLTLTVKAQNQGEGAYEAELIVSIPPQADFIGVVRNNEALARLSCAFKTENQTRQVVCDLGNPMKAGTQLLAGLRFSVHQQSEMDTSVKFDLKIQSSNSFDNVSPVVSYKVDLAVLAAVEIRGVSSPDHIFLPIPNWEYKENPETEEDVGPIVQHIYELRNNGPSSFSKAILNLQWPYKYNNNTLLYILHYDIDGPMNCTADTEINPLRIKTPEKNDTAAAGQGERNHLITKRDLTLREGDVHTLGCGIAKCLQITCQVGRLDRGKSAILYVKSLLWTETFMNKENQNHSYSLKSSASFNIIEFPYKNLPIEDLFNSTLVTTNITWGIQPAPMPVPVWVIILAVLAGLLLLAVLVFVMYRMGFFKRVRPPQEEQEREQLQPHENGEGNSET
T2 sequence (Q0VBD0 22-767 limits assumed, chain 2 of 2): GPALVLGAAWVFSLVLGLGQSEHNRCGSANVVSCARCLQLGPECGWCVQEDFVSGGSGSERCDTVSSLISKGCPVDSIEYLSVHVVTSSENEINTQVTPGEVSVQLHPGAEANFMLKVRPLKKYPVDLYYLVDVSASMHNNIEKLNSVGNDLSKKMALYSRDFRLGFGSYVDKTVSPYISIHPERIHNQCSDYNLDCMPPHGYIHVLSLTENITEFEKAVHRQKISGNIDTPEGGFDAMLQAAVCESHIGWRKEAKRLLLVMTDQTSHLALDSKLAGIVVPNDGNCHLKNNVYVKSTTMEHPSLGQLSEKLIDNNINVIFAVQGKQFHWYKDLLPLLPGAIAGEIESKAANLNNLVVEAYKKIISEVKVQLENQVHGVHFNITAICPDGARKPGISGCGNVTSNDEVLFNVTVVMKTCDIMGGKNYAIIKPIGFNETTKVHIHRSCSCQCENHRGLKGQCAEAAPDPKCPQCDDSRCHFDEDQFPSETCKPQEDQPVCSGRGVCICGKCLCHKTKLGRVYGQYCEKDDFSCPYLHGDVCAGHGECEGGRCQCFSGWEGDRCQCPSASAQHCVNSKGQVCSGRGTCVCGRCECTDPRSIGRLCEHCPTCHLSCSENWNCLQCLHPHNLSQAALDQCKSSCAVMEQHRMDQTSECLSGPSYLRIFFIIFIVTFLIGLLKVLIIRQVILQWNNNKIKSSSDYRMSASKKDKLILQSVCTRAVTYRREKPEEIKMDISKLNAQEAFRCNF
Experimental: 100,000 cells were incubated with a dilution series of the anti-αvβ8 or human IgG1_3 mut Isotype antibody for three to four hours on ice. The cells were spun down for five minutes at 300 g force. The cells were then washed three times with wash buffer (PBS+0.2% BSA) to remove excess unbound antibodies. After thorough washing, cells were incubated with Fab′2 anti-human Fc-PE (Invitrogen) or goat Fab′2 anti-mouse-APC (Jackson Labs) at 1:1000 dilution along with LIVE/DEAD fixable cell stain (Invitrogen) at 1:2000 to distinguish live cells. The whole content was incubated for 30 minutes on ice. After washing, the stained cells were analyzed on BD biosciences Fortessa flow cytometer (gated for live cells) using FlowJo analysis software. The mean fluorescence intensities (MFI) at different antibody concentrations were plotted for various antibodies.
The apparent-affinity of ADWA11 2.4 for U251 (human glioblastoma) or C8-S (mouse astrocyte) cells was also evaluated in a cell-binding assay, according to the methods as generally described herein. Briefly, cells were incubated with a serial dilution of ADWA11 2.4 for 4 hours on ice, followed by detection on bound antibody with an anti-human-PE secondary antibody, and analyzed by flow cytometry.

[6] = biological target: T1, human αvβ8 integrin on U251 cells; assay: flow cytometry, IgG binding to U251 cells (MFI PE-A), left panel ADWA11_IgG_U251 cell binding; EC50 unit inferred, axis Log10 [mAb] nM
[7] = biological target: T3, recombinant human αvβ6 integrin (human, UniProt P06756 31-992; P18564 22-707); assay: Biacore, recombinant human αvβ6 immobilised on the chip; concentration not shown
T3 construct: Used in ELISA and immobilised on the Biacore chip; construct not described; also called hαvβ6; AVB6
T3 sequence (P06756 31-992 limits assumed, chain 1 of 2): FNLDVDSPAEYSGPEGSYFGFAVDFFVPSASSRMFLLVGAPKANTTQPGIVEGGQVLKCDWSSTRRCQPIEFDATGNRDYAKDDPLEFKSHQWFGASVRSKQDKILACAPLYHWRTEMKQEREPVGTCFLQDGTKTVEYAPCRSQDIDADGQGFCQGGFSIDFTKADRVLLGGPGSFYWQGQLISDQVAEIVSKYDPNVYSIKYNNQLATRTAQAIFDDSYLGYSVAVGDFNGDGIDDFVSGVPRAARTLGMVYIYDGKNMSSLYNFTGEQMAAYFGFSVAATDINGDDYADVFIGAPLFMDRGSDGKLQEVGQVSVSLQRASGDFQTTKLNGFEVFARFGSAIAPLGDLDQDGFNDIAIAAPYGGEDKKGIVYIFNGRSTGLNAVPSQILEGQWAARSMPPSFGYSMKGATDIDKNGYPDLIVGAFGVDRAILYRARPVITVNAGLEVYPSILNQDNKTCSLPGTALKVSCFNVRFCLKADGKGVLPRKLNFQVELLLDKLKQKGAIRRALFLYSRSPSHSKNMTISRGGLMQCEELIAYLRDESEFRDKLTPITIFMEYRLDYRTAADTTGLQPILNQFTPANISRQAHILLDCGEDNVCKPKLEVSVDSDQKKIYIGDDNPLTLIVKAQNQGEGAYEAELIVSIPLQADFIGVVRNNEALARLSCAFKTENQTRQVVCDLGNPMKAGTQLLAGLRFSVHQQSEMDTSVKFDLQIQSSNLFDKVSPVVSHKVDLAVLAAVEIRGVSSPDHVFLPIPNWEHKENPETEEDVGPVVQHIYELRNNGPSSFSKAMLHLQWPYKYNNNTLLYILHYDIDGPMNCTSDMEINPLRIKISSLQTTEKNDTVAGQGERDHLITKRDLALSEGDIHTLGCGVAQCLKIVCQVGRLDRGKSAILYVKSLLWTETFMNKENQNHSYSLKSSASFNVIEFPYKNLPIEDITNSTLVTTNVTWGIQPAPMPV
T3 sequence (P18564 22-707 limits assumed, chain 2 of 2): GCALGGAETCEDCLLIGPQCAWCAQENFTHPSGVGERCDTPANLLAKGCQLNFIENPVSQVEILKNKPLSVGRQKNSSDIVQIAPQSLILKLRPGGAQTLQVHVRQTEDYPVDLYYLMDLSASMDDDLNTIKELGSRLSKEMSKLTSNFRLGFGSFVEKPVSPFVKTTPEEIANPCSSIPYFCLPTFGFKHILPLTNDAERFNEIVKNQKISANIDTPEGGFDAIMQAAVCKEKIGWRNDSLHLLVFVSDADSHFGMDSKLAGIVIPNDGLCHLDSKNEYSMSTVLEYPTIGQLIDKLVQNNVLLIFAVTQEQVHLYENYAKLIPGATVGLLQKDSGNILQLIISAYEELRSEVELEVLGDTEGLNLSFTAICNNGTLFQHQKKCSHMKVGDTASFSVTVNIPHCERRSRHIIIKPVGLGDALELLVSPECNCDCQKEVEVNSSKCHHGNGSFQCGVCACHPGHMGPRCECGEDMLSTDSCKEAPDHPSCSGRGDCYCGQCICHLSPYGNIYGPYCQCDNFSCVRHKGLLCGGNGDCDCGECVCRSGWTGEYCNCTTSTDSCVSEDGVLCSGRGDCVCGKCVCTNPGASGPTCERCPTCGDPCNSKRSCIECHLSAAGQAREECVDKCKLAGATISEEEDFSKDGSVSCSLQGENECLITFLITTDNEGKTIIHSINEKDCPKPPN
Experimental: (§1) To evaluate the specificity of ADWA11 2.4, recombinant human αvβ6 and αvβ3 were immobilized on a Biacore chip and binding of the parental murine and humanized mAb variant of ADWA11 2.4 was determined.

[8] = biological target: T4, recombinant human αvβ3 integrin (human, UniProt P06756 31-992; P05106 27-718); assay: Biacore, recombinant human αvβ3 immobilised on the chip; concentration not shown
T4 construct: Used in ELISA and immobilised on the Biacore chip; construct not described; also called hαvβ3; AVB3
T4 sequence (P06756 31-992 limits assumed, chain 1 of 2): as the sequence (P06756 31-992 limits assumed, chain 1 of 2) above
T4 sequence (P05106 27-718 limits assumed, chain 2 of 2): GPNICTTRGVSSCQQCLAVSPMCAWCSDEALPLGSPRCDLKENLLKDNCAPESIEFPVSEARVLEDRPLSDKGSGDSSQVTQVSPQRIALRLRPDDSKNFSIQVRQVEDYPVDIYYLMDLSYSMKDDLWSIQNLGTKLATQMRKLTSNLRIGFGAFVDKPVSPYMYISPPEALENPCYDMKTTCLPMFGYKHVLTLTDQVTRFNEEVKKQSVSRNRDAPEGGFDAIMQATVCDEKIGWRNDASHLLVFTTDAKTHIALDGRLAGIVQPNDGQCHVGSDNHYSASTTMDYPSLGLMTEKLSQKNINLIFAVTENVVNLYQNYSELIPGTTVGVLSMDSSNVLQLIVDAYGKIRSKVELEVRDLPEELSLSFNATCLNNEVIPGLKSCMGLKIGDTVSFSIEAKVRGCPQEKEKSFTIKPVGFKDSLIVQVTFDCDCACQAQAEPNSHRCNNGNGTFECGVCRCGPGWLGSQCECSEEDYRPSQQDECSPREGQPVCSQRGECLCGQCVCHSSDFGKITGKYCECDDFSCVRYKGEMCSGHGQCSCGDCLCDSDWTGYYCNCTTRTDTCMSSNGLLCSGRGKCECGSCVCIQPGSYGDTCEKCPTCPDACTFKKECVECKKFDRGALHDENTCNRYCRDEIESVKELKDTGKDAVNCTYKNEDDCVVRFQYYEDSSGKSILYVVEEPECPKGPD
Experimental: as §1

B1: ADWA11 VH05-2/VK01 Fab with F64V in VH (Fab, V domains shown)
VH: EVQLVESGGGLVQPGGSLRLSCAASGFNIKDYYMNWVRQAPGKGLEWVGWIDPDQGNTIYEPKVQGRFTISADTSKNSAYLQMNSLRAEDTAVYYCARRLLMDYWGQGTLVTVSS
VL: DIQMTQSPSSLSASVGDRVTITCRSTKSLLHFNGNTYLFWYQQKPGKAPKRLIYYMSNLASGVPSRFSGSGSGTDFTLTISSLQPEDFATYYCMQSLEYPFTFGQGTKVEIK
- EC50 [1]: 0.588 nM

B2: ADWA11 VH03/VK02 IgG (antibody, V domains shown)
VH: EVQLVESGGGLVQPGGSLRLSCAASGFNIKDYYMNWVRQAPGKGLEWVGWIDPDNGNTIYDPKFQGRFTISADNAKNSAYLQMNSLRAEDTAVYYCARRLLMDYWGQGTLVTVSS
VL: DIQMTQSPSSLSASVGDRVTITCRSTKSLLHFNGNTYLFWFQQKPGKAPKRLIYYMSNLASGVPSRFSGSGSGTDFTLTISSLQPEDFATYYCMQSLEYPFTFGQGTKVEIK
- IgG Potency TGFB Assay IC50 (pM) [2]: 223 pM

B3: ADWA11 VH05-2/VK01 Fab with M56A in VL (Fab, V domains shown)
VH: EVQLVESGGGLVQPGGSLRLSCAASGFNIKDYYMNWVRQAPGKGLEWVGWIDPDQGNTIYEPKFQGRFTISADTSKNSAYLQMNSLRAEDTAVYYCARRLLMDYWGQGTLVTVSS
VL: DIQMTQSPSSLSASVGDRVTITCRSTKSLLHFNGNTYLFWYQQKPGKAPKRLIYYASNLASGVPSRFSGSGSGTDFTLTISSLQPEDFATYYCMQSLEYPFTFGQGTKVEIK
- EC50 [3]: 0.205 nM

B4: ADWA11 VH05-2/VK01 Fab with L30S in VL (Fab, V domains shown)
VH: EVQLVESGGGLVQPGGSLRLSCAASGFNIKDYYMNWVRQAPGKGLEWVGWIDPDQGNTIYEPKFQGRFTISADTSKNSAYLQMNSLRAEDTAVYYCARRLLMDYWGQGTLVTVSS
VL: DIQMTQSPSSLSASVGDRVTITCRSTKSLSHFNGNTYLFWYQQKPGKAPKRLIYYMSNLASGVPSRFSGSGSGTDFTLTISSLQPEDFATYYCMQSLEYPFTFGQGTKVEIK
- EC50 [1]: 0.544 nM

B5: ADWA11 VH01/VK01 IgG (antibody, V domains shown)
VH: EVQLVESGGGLVQPGGSLRLSCAASGFNIKDYYMNWVRQAPGKGLEWVAWIDPDNGNTIYDPKFQGRFTISRDNAKNSLYLQMNSLRAEDTAVYYCARRLLMDYWGQGTLVTVSS
VL: DIQMTQSPSSLSASVGDRVTITCRSTKSLLHFNGNTYLFWYQQKPGKAPKRLIYYMSNLASGVPSRFSGSGSGTDFTLTISSLQPEDFATYYCMQSLEYPFTFGQGTKVEIK
- IgG Potency TGFB Assay IC50 (pM) [2]: 8470 pM

B6: ADWA11 VH05-2/VK01 Fab (parental) (Fab, V domains shown)
VH: EVQLVESGGGLVQPGGSLRLSCAASGFNIKDYYMNWVRQAPGKGLEWVGWIDPDQGNTIYEPKFQGRFTISADTSKNSAYLQMNSLRAEDTAVYYCARRLLMDYWGQGTLVTVSS
VL: DIQMTQSPSSLSASVGDRVTITCRSTKSLLHFNGNTYLFWYQQKPGKAPKRLIYYMSNLASGVPSRFSGSGSGTDFTLTISSLQPEDFATYYCMQSLEYPFTFGQGTKVEIK
- EC50 [4]: 0.198 nM
- EC50 [3]: 0.224 nM
- EC50 [1]: 0.613 nM

B7: ADWA11 VH03/VK01 IgG (antibody, V domains shown)
VH: EVQLVESGGGLVQPGGSLRLSCAASGFNIKDYYMNWVRQAPGKGLEWVGWIDPDNGNTIYDPKFQGRFTISADNAKNSAYLQMNSLRAEDTAVYYCARRLLMDYWGQGTLVTVSS
VL: DIQMTQSPSSLSASVGDRVTITCRSTKSLLHFNGNTYLFWYQQKPGKAPKRLIYYMSNLASGVPSRFSGSGSGTDFTLTISSLQPEDFATYYCMQSLEYPFTFGQGTKVEIK
- IgG Potency TGFB Assay IC50 (pM) [2]: 138 pM

B8: ADWA11 VH05-2/VK01 Fab with L97Y in VL (Fab, V domains shown)
VH: EVQLVESGGGLVQPGGSLRLSCAASGFNIKDYYMNWVRQAPGKGLEWVGWIDPDQGNTIYEPKFQGRFTISADTSKNSAYLQMNSLRAEDTAVYYCARRLLMDYWGQGTLVTVSS
VL: DIQMTQSPSSLSASVGDRVTITCRSTKSLLHFNGNTYLFWYQQKPGKAPKRLIYYMSNLASGVPSRFSGSGSGTDFTLTISSLQPEDFATYYCMQSYEYPFTFGQGTKVEIK
- EC50 [1]: 0.544 nM

B9: ADWA11 VH05-2/VK01 Fab with N58S in VL (Fab, V domains shown)
VH: EVQLVESGGGLVQPGGSLRLSCAASGFNIKDYYMNWVRQAPGKGLEWVGWIDPDQGNTIYEPKFQGRFTISADTSKNSAYLQMNSLRAEDTAVYYCARRLLMDYWGQGTLVTVSS
VL: DIQMTQSPSSLSASVGDRVTITCRSTKSLLHFNGNTYLFWYQQKPGKAPKRLIYYMSSLASGVPSRFSGSGSGTDFTLTISSLQPEDFATYYCMQSLEYPFTFGQGTKVEIK
- EC50 [3]: 0.229 nM

B10: ADWA11 VH02/VK01 IgG (antibody, V domains shown)
VH: EVQLVESGGGLVQPGGSLRLSCAASGFNIKDYYMNWVRQAPGKGLEWVAWIDPDNGNTIYDPKFQGRFTISADNAKNSLYLQMNSLRAEDTAVYYCARRLLMDYWGQGTLVTVSS
VL: DIQMTQSPSSLSASVGDRVTITCRSTKSLLHFNGNTYLFWYQQKPGKAPKRLIYYMSNLASGVPSRFSGSGSGTDFTLTISSLQPEDFATYYCMQSLEYPFTFGQGTKVEIK
- IgG Potency TGFB Assay IC50 (pM) [2]: 1760 pM

B11: ADWA11 VH05-2/VK01 Fab with M94Q in VL (Fab, V domains shown)
VH: EVQLVESGGGLVQPGGSLRLSCAASGFNIKDYYMNWVRQAPGKGLEWVGWIDPDQGNTIYEPKFQGRFTISADTSKNSAYLQMNSLRAEDTAVYYCARRLLMDYWGQGTLVTVSS
VL: DIQMTQSPSSLSASVGDRVTITCRSTKSLLHFNGNTYLFWYQQKPGKAPKRLIYYMSNLASGVPSRFSGSGSGTDFTLTISSLQPEDFATYYCQQSLEYPFTFGQGTKVEIK
- EC50 [1]: 0.641 nM

B12: ADWA11 VH05-2/VK01(2.1) antibody (antibody, V domains shown)
VH: EVQLVESGGGLVQPGGSLRLSCAASGFNIKDYYMNWVRQAPGKGLEWVGWIDPDQGNTIYEPKFQGRFTISADTSKNSAYLQMNSLRAEDTAVYYCARRLLMDYWGQGTLVTVSS
VL: DIQMTQSPSSLSASVGDRVTITCRSTKSLSHFNGNTYLFWYQQKPGKAPKRLIYYMSNLASGVPSRFSGSGSGTDFTLTISSLQPEDFATYYCQQSLEYPFTFGGGTKVEIK
notes: also called ADWA11 2.1
- EC50 [5]: 0.106 nM
- EC50 [6]: 0.1 nM

B13: ADWA11 VH05-2/VK01 Fab with F101L in VL (Fab, V domains shown)
VH: EVQLVESGGGLVQPGGSLRLSCAASGFNIKDYYMNWVRQAPGKGLEWVGWIDPDQGNTIYEPKFQGRFTISADTSKNSAYLQMNSLRAEDTAVYYCARRLLMDYWGQGTLVTVSS
VL: DIQMTQSPSSLSASVGDRVTITCRSTKSLLHFNGNTYLFWYQQKPGKAPKRLIYYMSNLASGVPSRFSGSGSGTDFTLTISSLQPEDFATYYCMQSLEYPLTFGQGTKVEIK
- EC50 [1]: 1.56 nM

B14: ADWA11 VH05-2/VK01 IgG (antibody, V domains shown)
VH: EVQLVESGGGLVQPGGSLRLSCAASGFNIKDYYMNWVRQAPGKGLEWVGWIDPDQGNTIYEPKFQGRFTISADTSKNSAYLQMNSLRAEDTAVYYCARRLLMDYWGQGTLVTVSS
VL: DIQMTQSPSSLSASVGDRVTITCRSTKSLLHFNGNTYLFWYQQKPGKAPKRLIYYMSNLASGVPSRFSGSGSGTDFTLTISSLQPEDFATYYCMQSLEYPFTFGQGTKVEIK
notes: also called ADWA11 5-2_1; VH05/VK01-N55Q-D61E
- binding result [7]: no binding
- binding result [8]: no binding
- EC50 [5]: 0.0591 nM
- EC50 [6]: 0.0711 nM

B15: ADWA11 VH05-2/VK01 Fab with Q105G in VL (Fab, V domains shown)
VH: EVQLVESGGGLVQPGGSLRLSCAASGFNIKDYYMNWVRQAPGKGLEWVGWIDPDQGNTIYEPKFQGRFTISADTSKNSAYLQMNSLRAEDTAVYYCARRLLMDYWGQGTLVTVSS
VL: DIQMTQSPSSLSASVGDRVTITCRSTKSLLHFNGNTYLFWYQQKPGKAPKRLIYYMSNLASGVPSRFSGSGSGTDFTLTISSLQPEDFATYYCMQSLEYPFTFGGGTKVEIK
- EC50 [1]: 0.486 nM

B16: ADWA11 VH05-1/VK01 IgG (antibody, V domains shown)
VH: EVQLVESGGGLVQPGGSLRLSCAASGFNIKDYYMNWVRQAPGKGLEWVGWIDPDNGNTIYEPKFQGRFTISADTSKNSAYLQMNSLRAEDTAVYYCARRLLMDYWGQGTLVTVSS
VL: DIQMTQSPSSLSASVGDRVTITCRSTKSLLHFNGNTYLFWYQQKPGKAPKRLIYYMSNLASGVPSRFSGSGSGTDFTLTISSLQPEDFATYYCMQSLEYPFTFGQGTKVEIK
notes: VH05 with D61E; also called ADWA11 5-1_1; VH05/VK01-D61E
- binding result [7]: no binding
- binding result [8]: no binding
